Experimental data from publication doi:10.1101/2020.07.07.192757v1 (biorxiv, 2020).

How the values were obtained:
AkPT1 = molecular target: T1, AkPT1 (Angelica keiskei, UniProt A0A810JZD5); test: dimethylallyltransferase assay, HPLC, recombinant microsomes; type: cell-based; details: read-out: Apparent Km; co-substrate DMAPP; 10 mM MgCl2, pH 8.0, 30 °C
T1 sequence (A0A810JZD5 1-398): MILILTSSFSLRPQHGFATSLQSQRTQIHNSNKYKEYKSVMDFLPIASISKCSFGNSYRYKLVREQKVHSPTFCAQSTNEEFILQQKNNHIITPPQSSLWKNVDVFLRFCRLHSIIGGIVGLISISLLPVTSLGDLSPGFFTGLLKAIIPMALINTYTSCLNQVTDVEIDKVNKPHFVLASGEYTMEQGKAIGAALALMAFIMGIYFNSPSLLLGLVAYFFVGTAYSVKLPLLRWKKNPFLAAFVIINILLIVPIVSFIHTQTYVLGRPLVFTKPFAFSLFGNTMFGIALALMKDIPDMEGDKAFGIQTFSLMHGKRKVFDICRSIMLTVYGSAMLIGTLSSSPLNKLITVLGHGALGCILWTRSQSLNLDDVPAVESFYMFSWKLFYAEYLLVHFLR

CpPT1 = molecular target: T2, CpPT1 (Citrus x paradisi, UniProt A0A810JZE7); test: geranyltransferase assay, LC product quantification, recombinant microsomes; details: read-out: Apparent Km; co-substrate GPP; 10 mM MgCl2, pH 7.6, 28 °C
T2 sequence (A0A810JZE7 1-408 limits assumed): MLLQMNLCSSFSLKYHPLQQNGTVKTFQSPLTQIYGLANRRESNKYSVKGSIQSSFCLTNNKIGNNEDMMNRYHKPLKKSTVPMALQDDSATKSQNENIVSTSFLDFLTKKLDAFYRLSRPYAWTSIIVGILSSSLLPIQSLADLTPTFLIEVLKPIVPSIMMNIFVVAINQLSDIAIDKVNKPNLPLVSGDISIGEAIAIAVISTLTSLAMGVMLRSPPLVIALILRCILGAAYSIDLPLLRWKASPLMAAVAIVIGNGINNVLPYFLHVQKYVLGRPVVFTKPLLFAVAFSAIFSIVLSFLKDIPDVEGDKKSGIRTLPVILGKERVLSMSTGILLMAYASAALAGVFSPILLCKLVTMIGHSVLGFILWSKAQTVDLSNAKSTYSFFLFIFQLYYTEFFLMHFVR

[1] = substrate: CC(C)=CCC/C(C)=C/COP(=O)(O)OP(=O)(O)O; test: cells, lysate or membranes; details: co-substrate bergaptol, 10 mM MgCl2, pH 7.6, 28 °C
[2] = substrate: COc1c2ccoc2c(O)c2oc(=O)ccc12; test: cells, lysate or membranes; details: co-substrate GPP, 10 mM MgCl2, pH 7.6, 28 °C
[3] = substrate: COc1cc(O)c2ccc(=O)oc2c1; test: cells, lysate or membranes; details: co-substrate GPP, 10 mM MgCl2, pH 7.6, 28 °C
[4] = substrate: O=c1ccc2c(O)cc(O)cc2o1; test: cells, lysate or membranes; details: co-substrate GPP, 10 mM MgCl2, pH 7.6, 28 °C
[5] = substrate: O=c1ccc2cc3ccoc3c(O)c2o1; test: cells, lysate or membranes; details: co-substrate GPP, 10 mM MgCl2, pH 7.6, 28 °C
[6] = substrate: CC(C)=CCOP(=O)(O)OP(=O)(O)O; test: dimethylallyltransferase assay, HPLC, recombinant microsomes; type: cell-based, Angelica keiskei; details: co-substrate bergaptol, 10 mM MgCl2, pH 8.0, 30 °C

With O=c1ccc2c(O)c3ccoc3cc2o1 [compound 12, Bergaptol] as the molecule, how does the Km (AkPT1) read?
The Km was 3.1 ± 0.3 µM.

And the Km (CpPT1)?
The Km was 52 ± 4 µM.

B1: CpPT1 (Citrus x paradisi) (protein)
chain: T2 sequence (A0A810JZE7 1-408 limits assumed)
What does the source list for B1?
Km [1]: 10 ± 1 µM; Km [2]: 700 ± 100 µM; Km [3]: 250 ± 30 µM; Km [4]: 280 ± 30 µM; Km [5]: 280 ± 20 µM

B2: AkPT1 (Angelica keiskei) (protein)
chain: T1 sequence (A0A810JZD5 1-398)
Which Km [6] does the source give for B2 here?
Its Km is 1.8 ± 0.1 µM.
